Results reported in patent US20260055369A1, “METHOD FOR GENERATING CELLS OF THE T CELL LINEAGE WITH ENGINEERING BROADLY REACTIVE HUMAN NOTCH LIGAND” (H. Lee Moffitt Cancer Center and Research Institute, Inc., priority 2022, published 2026).
Positions count from the first letter of the chain named. Where two headings read alike, the source gives them in different places.

B1: Delta^MAX: engineered human DLL4 consensus variant with 10 mutations combining DLL4.v1 and DLL4.v2 mutations; sequence matches SEQ ID NO: 4/10 (protein)
chain: SSVFQLQLQEFINERGVLASGRPCEPGCRTFFRVCLKHFQAVVSPGPCTFGTVSTPVLGTNSFAVRDDSSGGGRNPLQLPLNFTWPGTFSLIIEAWHAPGDDLRPEALPPDALISKFAIQGSLAVGQNWLLDEQTSTLTRLRYSYRVICSDNYYGDNCSRLCKKRNDYFGHYVCQPDGNPSCLPGWTGEYCQQPICLSGCHEQNGYCSKPAECLCRPGWQGRLCNECIPHPGCRHGTCSTPWQCLCDEGWGGLYCDQDLNYCTHHSPCKNGATCRNSGPRSYTCTCRPGYTGVDCELELSECDSNPCRNGGSCKDQEDGYHCLCPPGYYGLHCEHSTLSCADSPCFNGGSCRERNQGANYACECPPNFTGSNCE
B2: WT DLL4: human wild-type Delta-like 4 (N-EGF5, residues 27-400), SEQ ID NO: 1 (protein)
chain: B1 chain with S2G, L81F, F117I, Y168H, P180L, P231N, L245T, Y254F, R275S, P279Q

Experiments:
[1] = system: Notch1; assay: Notch inhibition assay with soluble antagonists and WT DLL4 coated plates (CHO-K1 N1-Gal4); assay type: cell-based
Sequence of Notch1 (P46531 19-1664 limits assumed): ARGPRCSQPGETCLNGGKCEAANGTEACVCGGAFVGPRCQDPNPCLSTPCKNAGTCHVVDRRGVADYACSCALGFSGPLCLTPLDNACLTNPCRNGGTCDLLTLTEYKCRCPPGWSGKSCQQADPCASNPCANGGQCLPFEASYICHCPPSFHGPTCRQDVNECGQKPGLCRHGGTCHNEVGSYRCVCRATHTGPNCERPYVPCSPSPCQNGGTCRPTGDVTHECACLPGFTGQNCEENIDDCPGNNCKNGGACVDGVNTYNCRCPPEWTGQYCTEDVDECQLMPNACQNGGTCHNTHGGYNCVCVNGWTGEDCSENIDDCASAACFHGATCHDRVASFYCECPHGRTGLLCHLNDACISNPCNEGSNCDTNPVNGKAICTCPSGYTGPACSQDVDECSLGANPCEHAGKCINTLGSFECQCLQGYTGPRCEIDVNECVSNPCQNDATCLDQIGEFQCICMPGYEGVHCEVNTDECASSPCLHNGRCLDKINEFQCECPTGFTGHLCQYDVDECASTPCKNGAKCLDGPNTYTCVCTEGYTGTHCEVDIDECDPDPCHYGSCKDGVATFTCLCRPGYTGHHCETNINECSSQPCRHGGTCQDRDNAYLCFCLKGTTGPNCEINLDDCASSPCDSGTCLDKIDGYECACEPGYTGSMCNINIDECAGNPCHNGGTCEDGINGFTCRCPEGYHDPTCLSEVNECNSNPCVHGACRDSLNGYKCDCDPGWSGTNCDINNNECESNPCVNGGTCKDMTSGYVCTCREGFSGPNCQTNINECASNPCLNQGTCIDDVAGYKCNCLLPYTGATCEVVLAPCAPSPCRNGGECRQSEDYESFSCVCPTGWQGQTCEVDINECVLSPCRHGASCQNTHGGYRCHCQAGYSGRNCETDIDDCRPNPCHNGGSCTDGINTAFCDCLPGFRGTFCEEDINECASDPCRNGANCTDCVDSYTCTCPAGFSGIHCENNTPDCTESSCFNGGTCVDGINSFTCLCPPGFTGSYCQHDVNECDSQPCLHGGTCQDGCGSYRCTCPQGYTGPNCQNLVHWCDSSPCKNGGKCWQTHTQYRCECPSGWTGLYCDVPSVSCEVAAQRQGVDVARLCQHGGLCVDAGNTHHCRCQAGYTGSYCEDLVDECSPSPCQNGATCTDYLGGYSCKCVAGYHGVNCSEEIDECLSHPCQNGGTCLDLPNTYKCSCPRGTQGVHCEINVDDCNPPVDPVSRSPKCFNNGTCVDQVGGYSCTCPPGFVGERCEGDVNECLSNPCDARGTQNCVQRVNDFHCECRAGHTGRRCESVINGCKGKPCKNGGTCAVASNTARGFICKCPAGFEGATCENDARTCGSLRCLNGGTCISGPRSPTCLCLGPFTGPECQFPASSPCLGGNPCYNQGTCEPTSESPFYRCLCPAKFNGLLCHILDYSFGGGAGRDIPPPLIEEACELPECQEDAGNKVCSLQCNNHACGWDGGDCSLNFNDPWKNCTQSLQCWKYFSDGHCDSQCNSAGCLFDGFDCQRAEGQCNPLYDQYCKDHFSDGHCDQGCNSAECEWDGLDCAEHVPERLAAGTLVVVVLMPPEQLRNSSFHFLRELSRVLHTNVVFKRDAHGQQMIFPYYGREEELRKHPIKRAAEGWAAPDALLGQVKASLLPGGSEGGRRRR
Sequence of Notch1 (P46531 1665-1756 limits assumed): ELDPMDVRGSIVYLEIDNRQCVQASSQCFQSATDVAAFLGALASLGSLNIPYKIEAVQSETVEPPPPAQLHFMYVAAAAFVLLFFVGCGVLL
Description: For CHO-K1 N1-Gal4 reporter cells, on day one, biotinylated WT DLL4 was pre-coated in 96-well plates at 50 nM following the same protocol described above. Next, CHO-K1 N1-Gal4 cells were detached with trypsin-EDTA, washed, and diluted at 200,000 cells/mL in α-MEM media. Ten-fold serial dilutions of non-biotinylated DLL4 ligands (N-EGF5) were prepared in DPBS starting at 600 nM. Next, soluble inhibitors were mixed in ratio 1:1 with CHO-K1 N1-Gal4 200,000 cells/mL stocks for 15 min at room temperature to pre-block Notch receptors. Two hundred microliters of inhibition reactions containing 20,000 reporter cells were added to WT DLL4-coated wells, and plates incubated for 24 hours at 37° C. and 5% CO2. When DAPT (gamma-secretase inhibitor, Sigma) and BB-94 (ADAM metalloprotease inhibitor, Sigma) were used, stock solutions were prepared at 100 μM in 8% DMSO. Appropriate DMSO controls were included to test Notch activation and cell viability. Final DMSO concentration in the experiment was kept below 1%. For comparisons of Delta^MAX with DAPT and BB-94, soluble inhibitors were serially diluted in DPBS using 9-folds, incubated with CHO-K1 N1-Gal4 reporter cells, and added to wells as described above. On day two, assay plates were washed with 200 μL of DPBS, CHO-K1 N1-Gal4 cells detached with trypsin-EDTA, quenched with 200 μL of α-MEM media, and Notch activation measured by flow cytometry (BD Accuri C6 Plus). The data represent the mean fluorescent intensity as percentage of Notch activation, relative to Notch activation in the absence of inhibitors±s.d. of three independent biological replicates.

[2] = system: hPSC-derived neural progenitors; assay: Differentiation of hPSC-derived neural progenitors into neurons (qPCR markers); assay type: cell-based, human; settings: for neural progenitor marker SOX2 expression / neuronal markers (MAPT, SNAP25, DCX, VGLUT2, TBR1) expression: soluble protein 10, 100, 1,000 nM, day 8-14, qPCR
Description: Neural differentiation of hPSCs was performed in two separate phases over 14 days. In the first phase, to differentiate hPSCs into neural progenitors for 7 days, a modification of a previously-reported method was used. However, in this study, differentiation conducted in Chemically Defined Media 2 (CDM2) media, whose composition has been described previously: 50% IMDM+GlutaMAX (Thermo Fisher)+50% F12+GlutaMAX (Thermo Fisher)+1 mg/mL polyvinyl alcohol (Sigma)+1% v/v chemically defined lipid concentrate (Thermo Fisher)+450 μM 1-thioglycerol (Sigma)+0.7 μg/mL recombinant human insulin (Sigma)+15 μg/mL human transferrin (Sigma)+1% v/v penicillin/streptomycin (Thermo Fisher). To create CDM2, polyvinyl alcohol was brought into suspension by gentle warming and magnetic stirring, and the media was sterilely filtered (through a 0.22 μm filter) prior to use. Throughout the first 7 days, differentiation media was changed every 24 hours. The second phase was to differentiate hPSC-derived neural progenitors into neurons for 7 days, from the day 8-14 interval. Neuronal differentiation media was modified from a previously-reported method^9. From day 8-14, cells were differentiated in BDNF (20 ng/ml, PeproTech), GDNF (20 ng/ml, PeproTech), Forskolin (10 μM, Tocris), 2-Phospho-L-ascorbic acid (0.2 mM, Sigma-Aldrich), with the basal media compositions varying depending on the day of differentiation. On day 8, 25% Neurobasal media+75% CDM2 media was used; on day 9, 50% Neurobasal media+50% CDM2 media was used; on day 10, 75% Neurobasal media+25% CDM2 media was used; on days 11-14, 100% Neurobasal media was used. The composition of Neurobasal media was: Neurobasal basal media (Thermo Fisher)+1% v/v N2 (Thermo Fisher)+2% v/v B27 (Thermo Fisher)+1% v/v penicillin/streptomycin (Thermo Fisher), which was filtered through a sterilizing 0.22 μM filter before use. In summary, starting on day 8 of differentiation, Neurobasal media was added in an increasing ¼th increment on a daily basis. However, to emphasize, throughout the entire day 8-14 interval, cells were exposed to the same concentration of neuronal differentiation signals (BDNF, GDNF, Forskolin and 2-Phospho-L-ascorbic acid), although different basal medias were used on different days.
To test the effect of Notch signaling on neuronal differentiation, starting on day 8, hPSC-derived neural progenitors were treated with the aforementioned neuronal differentiation signals in the presence or absence of soluble Delta^MAX (0-1,000 nM), soluble wild-type DLL4 (0-1,000 nM), or DAPT (10,000 nM, Tocris).
After differentiation of hPSCs into neurons as described above, gene expression was analyzed using RNA extraction, reverse transcription, and quantitative PCR (qPCR) as previously described. First, cells were lysed with RNeasy Lysis Buffer (Qiagen) and stored at −20° C. Cell lysates were then thawed, and RNA was extracted using the RNeasy Mini Plus Kit (Qiagen) as per the manufacturer's instructions and dissolved in H2O. Next, 300 ng of RNA was reverse transcribed into complementary DNA (cDNA) using the High-Capacity cDNA Reverse Transcription Kit (Applied Biosystems) according to the manufacturer's protocol. Total cDNA was diluted 1:20 in H2O and qPCR was performed with the SensiFAST SYBR Lo-ROX Kit (Bioline) using 10 μL qPCR reactions per well in a 384-well plate. Each individual reaction contained 5.0 μL 2× SensiFAST SYBR qPCR Master Mix+4.6 μL cDNA+0.4 μL of 10 μM primer stock (5 μM forward+5 μM reverse primers). […]

Molecule	IC50 ([1]; comparison with DAPT and BB-94, plates coated with 50 nM WT DLL4, FIG. 4B, read-out: IC50 for inhibition of Notch1 activation)	potency relative to BB-94 ([1]; ratio of IC50)	potency relative to DAPT ([1]; ratio of IC50)	IC50 ([1]; soluble ECD, plates coated with 50 nM WT DLL4, 24 hours, FIG. 4A, read-out: IC50 for inhibition of Notch1 signaling)	neuronal differentiation compared with 10 μM of DAPT ([2]; 1 μM soluble protein)	neural progenitor marker SOX2 expression [2]	neuronal markers (MAPT, SNAP25, DCX, VGLUT2, TBR1) expression [2]	reduction of reporter activity ([1]; soluble, highest concentration tested (300 nM))
B1	1000 pM	1,000 fold	40 fold	600 pM	comparable to, if not superior to	repressed	sharply increased	
B2						failed to upregulate neuronal markers or to repress neural progenitor markers	failed to upregulate neuronal markers	~25%
